Common to all, as to conditions: 20 nM; 72 h
Data set [1] has as its system MCF10A. In words: percent viability (nuclei count relative to siNT); higher = more viable cells. How it is done:
(§1)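 After 72 h, cells were fixed and stained with Hoechst and anti-fibrillarin, and nucleoli per nucleus were counted with CellProfiler. Values are plate-adjusted percent effect for the one-nucleolus and 5+ nucleoli phenotypes, normalised to siNT (0%) and to the positive controls siNOL11 or siKIF11 (100%), as the mean of biological triplicates. Percent viability is the nuclei count relative to siNT.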

Data set [2] concerns MCF10A. Briefly: 5+ nucleoli phenotype percent effect (relative to siNT 0% and siKIF11 100%); higher = more cells with five or more nucleoli. How it is done: as §1
Data set [3] deals with MCF10A. Briefly: one-nucleolus phenotype percent effect (relative to siNT 0% and siNOL11 100%); higher = more cells with one nucleolus (ribosome biogenesis inhibition). How it is done: as §1

“CUCGUGGGCUCUGGCCACGGCC [hsa-miR-3677-3p]”: the percent viability in data set [1] was 56.2%. The “5+ nucleoli phenotype percent effect” value in data set [2] was -9.65%. For the same sequence, the “one-nucleolus phenotype percent effect” value in data set [3] was -2.83%.
Turning to “GAAAUCAAGCGUGGGUGAGACC [hsa-miR-551b-5p]”, in data set [1], the percent viability amounted to 57.5%. In addition, the “5+ nucleoli phenotype percent effect” value in data set [2] amounted to 40.3%. Moreover, the “one-nucleolus phenotype percent effect” value in data set [3] is -15.5%.
UCUGUGGAGUGGGGUGCCUGU [hsa-miR-7114-5p]: in data set [1], the percent viability was 16%. Also, the “5+ nucleoli phenotype percent effect” value in data set [2] worked out at 7.56%. The “one-nucleolus phenotype percent effect” value in data set [3] turned out to be 15%.
The matching figures for CUACAAAGGGAAGCCCUUUC [hsa-miR-520d-5p]: 39.7%, -47.9% and 28.4%.
On to CCCAGCAGGACGGGAGCG [hsa-miR-4530], for which the percent viability in data set [1] came to 111%. In addition, the “5+ nucleoli phenotype percent effect” value in data set [2] came out at 43.3%. In data set [3], the “one-nucleolus phenotype percent effect” value was -26.2%.
As to “GUGAGUAGUGGCGCGCGGCGGC [hsa-miR-6869-5p]”, the percent viability in data set [1] is 32.4%. Moreover, the “5+ nucleoli phenotype percent effect” value in data set [2] is -16.7%. For the same sequence, the “one-nucleolus phenotype percent effect” value in data set [3] is 12.6%.
With “UACCUGGGAGACUGAGGUUGGA [hsa-miR-7851-3p]”, the percent viability in data set [1] was 61.5%. Further, in data set [2], the “5+ nucleoli phenotype percent effect” value came to 24.6%. The “one-nucleolus phenotype percent effect” value in data set [3] is -15.4%.
On to CGGGGUGGGUGAGGUCGGGC [hsa-miR-4651], for which the percent viability in data set [1] stood at 33.5%. Moreover, the “5+ nucleoli phenotype percent effect” value in data set [2] was -1.6%. Moreover, the “one-nucleolus phenotype percent effect” value in data set [3] turned out to be 2.27%.
Consider UGGGGGAGUGCAGUGAUUGUGG [hsa-miR-5698], for which, in data set [1], the percent viability was determined as 161%. Moreover, the “5+ nucleoli phenotype percent effect” value in data set [2] was 43.2%. In data set [3], the “one-nucleolus phenotype percent effect” value was -25.1%.
Turning to CUCACUCUCAGUCCCUCCCU [hsa-miR-6794-3p], in data set [1], the percent viability came out at 88.6%. For the same sequence, the “5+ nucleoli phenotype percent effect” value in data set [2] turned out to be 27.6%. Moreover, the “one-nucleolus phenotype percent effect” value in data set [3] was -18.1%.
In the same order, the values of CCCGCAGGUGAGAUGAGGGCU [hsa-miR-6886-5p] are 28.8%, -23.1% and 9.43%.
The matching figures for UACCACAGGGUAGAACCACGG [hsa-miR-140-3p]: 118%, 47.1% and -23.5%.
Regarding “CAGGGAACAGCUGGGUGAGCUGCU [hsa-miR-6750-5p]”, in data set [1], the percent viability is 60.6%. Further, the “5+ nucleoli phenotype percent effect” value in data set [2] was 27.2%. Moreover, the “one-nucleolus phenotype percent effect” value in data set [3] is -6.66%.
The matching figures for GCCUGGAGCUACUCCACCAUCUC [hsa-miR-4254]: 26.1%, 11.1% and 7%.
In the same order, the values of UGAUUGUCCAAACGCAAUUCU [hsa-miR-219-5p] are 82.1%, 14.5% and -9.06%.
The matching figures for GGGACCCAGGGAGAGACGUAAG [hsa-miR-711]: 80.1%, 30.4% and -15.3%.
As to UACGGUGAGCCUGUCAUUAUUC [hsa-miR-433-5p], the percent viability in data set [1] was found to be 32.9%. Besides, the “5+ nucleoli phenotype percent effect” value in data set [2] is -4.1%. Further, the “one-nucleolus phenotype percent effect” value in data set [3] is 4.21%.
For the sequence “CAAAAACCAUAGUUACUUUUGC [hsa-miR-548bb-3p]”, the percent viability in data set [1] was 103%. The “5+ nucleoli phenotype percent effect” value in data set [2] stood at 40.6%. Further, in data set [3], the “one-nucleolus phenotype percent effect” value was -26%.
The matching figures for “AAAGUGCUUCCUUUUAGAGGGU [hsa-miR-520c-3p]”: 74.6%, 44.6% and -14.7%.
In the same order, the values of “UCUGCACUGUGAGUUGGCUGGCU [hsa-miR-4793-3p]” are 44.7%, -3.16% and 10.7%.
With GGCGCGCCCAGCUCCCGGGCU [hsa-miR-4783-5p], in data set [1], the percent viability is 90.3%. Further, the “5+ nucleoli phenotype percent effect” value in data set [2] was found to be 28%. Also, the “one-nucleolus phenotype percent effect” value in data set [3] was -16.4%.
As for GUAGAGGAGAUGGCGCAGGG [hsa-miR-877-5p], in data set [1], the percent viability stood at 54.7%. The “5+ nucleoli phenotype percent effect” value in data set [2] amounted to 10.3%. The “one-nucleolus phenotype percent effect” value in data set [3] is -6.88%.
In the same order, the values of “UCACCCUGCAUCCCGCACCCAG [hsa-miR-3620-3p]” are 77%, 11.8% and -11.9%.
The matching figures for CUCCUAUAUGAUGCCUUUCUUC [hsa-miR-337-3p]: 52%, 2.51% and -11%.

Values taken from the supplement of paper PMC10899765.
